This is an account of results in PMC7661038, “Dot1l interacts with Zc3h10 to activate Ucp1 and other thermogenic genes” (eLife, 2020).

The test has as its target T1, Flag-Zc3h10 (mouse, UniProt Q8R205 1-435).
T1 sequence (looked up): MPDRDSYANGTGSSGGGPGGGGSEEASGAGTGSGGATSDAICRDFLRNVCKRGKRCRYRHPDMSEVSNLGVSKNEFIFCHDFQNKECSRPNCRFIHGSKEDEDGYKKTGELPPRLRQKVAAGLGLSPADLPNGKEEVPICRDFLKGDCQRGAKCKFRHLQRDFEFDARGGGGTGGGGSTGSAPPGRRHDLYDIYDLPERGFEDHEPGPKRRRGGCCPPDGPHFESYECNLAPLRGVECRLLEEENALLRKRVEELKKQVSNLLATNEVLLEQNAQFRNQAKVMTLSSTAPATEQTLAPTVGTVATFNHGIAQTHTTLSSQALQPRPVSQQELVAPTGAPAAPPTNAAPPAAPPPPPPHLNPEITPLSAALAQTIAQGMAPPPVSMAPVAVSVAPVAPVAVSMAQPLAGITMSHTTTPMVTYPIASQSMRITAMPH
Nature of the test: cell-based or functional assay.

B1: HA-Dot1l (enzyme, mouse, UniProt Q6XZL8 1-1540, looked up)
chain: MGEKLELRLKSPVGAEPAVYPWPLPVYDKHHDAAHEIIETIRWVCEEIPDLKLAMENYVLIDYDTKSFESMQRLCDKYNRAIDSIHQLWKGTTQPMKLNTRPSNGLLRHILQQVYNHSVTDPEKLNNYEPFSPEVYGETSFDLVAQMIDEIKMTEDDLFVDLGSGVGQVVLQVAAATNCKHHYGVEKADIPAKYAETMDREFRKWMKWYGKKHAEYTLERGDFLSEEWRERIANTSVIFVNNFAFGPEVDHQLKERFANMKEGGRIVSSKPFAPLNFRINSRNLSDIGTIMRVVELSPLKGSVSWTGKPVSYYLHTIDRTILENYFSSLKNPKLREEQEAARRRQQRENKSNATTPTKVPESKAAATEAPADSGAEEEKSGVATVKKPSPSKARKKKLNKKGRKMAGRKRGRPKKMSAASAERKSKKSQSTLDLLHSPPPAPPSASPQDAYRAPHSPFYQLPPSTQLHSPNPLLVAPTPPALQKLLESFRIQYLQFLAYTKTPQYKANLQQLLDQEKEKNTQLLGTAQQLFGHCQAQKEEIRRLFQQKLDELGVKALTYNDLIQAQKEISAHNQQLREQSEQLEKDNSELRSQSLRLLRARCEELRLDWSTLSLENLRKEKQALRSQISEKQRHCLELQISIVELEKTQRQQELLQLKSCVPPDDALSLHLRGKGALGRELEADAGRLRLELDCAKISLPHLSSMSPELSMNGHAASYELCNAASRPSSKQNTPQYLASPLDQEVVPCTPSHSGRPRLEKLSGLALPDYTRLSPAKIVLRRHLSQDHTGASKAATSEPHPRPEHPKESSLPYQSPGLSNSMKLSPQDPPLASPATSPLTSEKGSEKGVKERAYSSHGETITSLPVSIPLSTVQPNKLPVSIPLASVVLPSRAERARSTPSPVPQPRDSSATLEKQTGASAHGAGGAGAGSRSLAVAPTGFYAGSVAISGALASSPAPLASGMESAVFDESSGPSSLFATMGSRSTPPQHPPLLSQSRNSGPASPAHQLTASPRLSVTTQGSLPDTSKGELPSDPAFSDPESEAKRRIVFSISVGASSKQSPSTRHSPLTSGTRGDCVQSHGQDSRKRSRRKRASAGTPSLSTGVSPKRRALPTVAGLFTQSSGSPLNLNSMVSNINQPLEITAISSPESSLKSSPTPYQDHDQPPVLRKERPLGLTNGAHYSPLTSDEEPGSEDEPSSARIERKIATISLESKSPPKTLENGGGLVGRKSAPSSEPINSSKWKSTFSPISDLGLAKAVDSPLQAGSALSHSPLFSFRPSLEEPAAEAKLPTHPRKSFAGSLGAAEGPSPGTNPPNGLAFSGGLAADLGLHSFNDGASLSHKGPDVTGLSASLSFPSQRGKDSTTEANPFLSRRQPEGLGGLKGEGNANKESGESLPLCGPSDKASLPHGSRASKGRDRELDFKGGHNLFISAAAVPPGGLLGGPGLVTVASSAGSATPTAQAPRPFLSTFAPGPQFTLGPMSLQANLGSVAGSSVLQSLFSTVPAAAGLVHVSSTATRLTNSHTMGSFSSGVAGGTVGGN
As for B1, the “Ucp1 promoter activity, luciferase reporter (−5.5 kb Ucp1-Luc) in HEK293 cells cotransfected with Zc3h10 and Dot1l, against empty vector control (Zc3h10 alone over 3-fold; Dot1l alone no activation)” value was 11 fold.
